Measured values published in US6855693B2, “Peptides for activation and inhibition of δPKC” (The Board of Trustees of the Leland Stanford Junior …, priority 2001, dated 2005).
No end group written: not given here.

Assays:
Assay type in all cases: cell-based
[1] = tested on: isolated adult rat cardiac myocytes; experiment: Simulated ischemia in isolated cardiac myocytes, cell damage by osmotic fragility test (trypan blue uptake)
Procedure: In another study, the δPKC activator peptide, ψδRACK, and the δPKC inhibitor peptide, δV1-1 were administered to isolated rat cardiac myocytes to determine the role of δPKC in protection from ischemia. As described in Example 2, the Antennapedia carrier-peptide conjugate of δV1-1 and/or ψδRACK was introduced into isolated adult rat cardiac myocytes ten minutes prior to prolonged ischemia. Cell damage was assessed using an osmotic fragility test by measuring uptake of trypan blue.
Adult male Wistar rat cardiomyocytes were prepared on a Langendorff apparatus (van der Heide, R. S. et al.) by collagenase treatment (Armstrong, S. et al.). The cells were treated with δV1-1 at concentrations of 10 nM, 100 nM, 500 nM, and 1 μM in the presence or absence of 1 μM ψδRACK. βPKC-selective activator was used as a control.
For […] ischemia, adult myocytes treated in microcentrifuge tubes with δV1-1 and/or ψδRACK peptides conjugated to the carrier were washed twice with degassed glucose-free incubation buffer and pelleted. On top of a minimal amount of buffer, the cell pellets were overlaid with either a micro-balloon (Sig Manufacturing, Montezuma, Iowa) or with degassed buffer saturated with nitrogen, and sealed with an airtight top. Tubes were then incubated at 37 C for either 180 minutes or 90 minutes.
Cell damage was assessed by an osmotic fragility test by measuring the uptake of trypan blue added in a hypotonic (85 mosM) solution. Similar results were also obtained by using a live-dead kit (Molecular Probes) or measuring the release of […] to the medium using a kit (Sigma) as previously described (Chen, et al., 1999; Gray et al., 1997; Mackay et al., 1999).

[2] = target: T1, αPKC (Rattus norvegicus, UniProt P05696); experiment: Translocation of αPKC in primary cardiac myocytes (Western blot); conditions: data not shown
T1 construct: blots probed with anti-δPKC, anti-αPKC and anti-εPKC antibodies; endogenous in cells; host or cells: primary neonatal rat cardiac myocytes
Procedure: As described in Example 1, the δV1-1 and ψδRACK peptides were analyzed to determine whether the peptides had activity, and if so, whether the activity was as an agonist or an antagonist of δPKC. As will be shown, δV1-1, δV1-2 and δV1-5 are δPKC antagonists and ψδRACK is a δPKC agonist. In these studies, the δV1-1 and ψδRACK peptides were modified with a carrier peptide by cross-linking via an N-terminal Cys-Cys bond to the Drosophila Antennapedia homeodomain (SEQ ID NO:8; Théodore, L., et al.; Johnson, J. A. et al., 1996b). […] Translocation of δPKC isozyme was assessed by Western blot analysis cystosolic and particulate fractions of treated cells. Subcellular localization of δPKC isozyme was assessed by immunofluorescence by probing the blot with […], and anti-εPKC antibodies. Translocation was expressed as the amount of isozyme in the particulate fraction over the amount of isozyme in non-treated cells. […]
Translocation of δPKC isozyme was assessed by using δPKC isozyme-specific antibodies in Western blot analysis (Santa Cruz Biotechnology). […] Subcellular localization of dPKC isozymes was assessed by chemiluminescence of blots probed with anti-δPKC, anti-αPKC and anti-εPKC antibodies. […] Changes in translocation of δPKC isozyme were also determined by immunofluoresence study of treated and fixed cells (Gray et al., 1997). […]

[3] = target: T2, δPKC (Rattus norvegicus, UniProt P09215); experiment: Translocation of δPKC in primary cardiac myocytes (Western blot of soluble and particulate fractions)
T2 construct: endogenous in cells; host or cells: primary neonatal rat cardiac myocytes
T2 sequence (P09215 whole entry): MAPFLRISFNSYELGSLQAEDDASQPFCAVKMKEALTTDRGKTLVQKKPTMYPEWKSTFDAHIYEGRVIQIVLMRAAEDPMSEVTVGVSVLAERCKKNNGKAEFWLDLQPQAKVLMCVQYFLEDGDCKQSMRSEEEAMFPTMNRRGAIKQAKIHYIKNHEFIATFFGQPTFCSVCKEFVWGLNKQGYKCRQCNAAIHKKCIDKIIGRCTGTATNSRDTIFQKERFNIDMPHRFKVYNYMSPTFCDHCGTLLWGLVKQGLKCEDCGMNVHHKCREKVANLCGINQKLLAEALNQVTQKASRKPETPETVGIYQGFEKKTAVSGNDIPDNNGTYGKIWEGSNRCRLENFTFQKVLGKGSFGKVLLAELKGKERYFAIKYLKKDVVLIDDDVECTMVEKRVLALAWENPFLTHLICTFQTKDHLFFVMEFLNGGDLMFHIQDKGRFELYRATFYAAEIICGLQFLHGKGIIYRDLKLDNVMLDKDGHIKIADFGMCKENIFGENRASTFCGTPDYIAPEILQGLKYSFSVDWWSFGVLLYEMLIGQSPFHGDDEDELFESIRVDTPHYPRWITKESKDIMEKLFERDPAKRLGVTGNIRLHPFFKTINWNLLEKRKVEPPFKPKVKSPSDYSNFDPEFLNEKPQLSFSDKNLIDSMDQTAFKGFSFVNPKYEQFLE
Procedure: As described in Example 1, the δV1-1 and ψδRACK peptides were analyzed to determine whether the peptides had activity, and if so, whether the activity was as an agonist or an antagonist of δPKC. As will be shown, δV1-1, δV1-2 and δV1-5 are δPKC antagonists and ψδRACK is a δPKC agonist. In these studies, the δV1-1 and ψδRACK peptides were modified with a carrier peptide by cross-linking via an N-terminal Cys-Cys bond to the Drosophila Antennapedia homeodomain (SEQ ID NO:8; Théodore, L., et al.; Johnson, J. A. et al., 1996b). In other studies, not described here, the peptide was modified with Tat (SEQ ID NO:9) or with polyarginine (Mitchell et al., 2000; Rothbard et al., 2000) and gave results similar to those described herein. Details of the study are set forth in Example 1. In brief, the Antennapedia-conjugated peptides were introduced to cardiac cells at a concentration of 500 nM in the presence and absence of phorbol 12-myristate 13-acetate (PMA) or in the presence of each other. Translocation of δPKC isozyme was assessed by Western blot analysis cystosolic and particulate fractions of treated cells. Subcellular localization of δPKC isozyme was assessed by immunofluorescence by probing the blot with […], and anti-εPKC antibodies. Translocation was expressed as the amount of isozyme in the particulate fraction over the amount of isozyme in non-treated cells.
Primary cardiac myocyte cell cultures (90-95% pure) were prepared from newborn rats (Gray, M. O. et al.; Disatnik M.-H. et al.). The peptides δV1-1 and ψδRACK were introduced into cells at an applied concentration of 500 nM in the presence and absence of phorbol 12-myristate 13-acetate (PMA) at concentrations of 3 nm and 10 nm, respectively, for 10-20 minutes. In a third set of cells, the peptide δV1-1 was applied at a concentration of 500 nM in the presence and absence of 500 nM ψδRACK.
Translocation of δPKC isozyme was assessed by using δPKC isozyme-specific antibodies in Western blot analysis (Santa Cruz Biotechnology). Western blot analysis of cystosolic and particulate fractions of treated cells was carried out as described by Johnson et al., 1995. Subcellular localization of dPKC isozymes was assessed by chemiluminescence of blots probed with anti-δPKC, anti-αPKC and anti-εPKC antibodies. Amounts of PKC isozymes in each fraction was quantitated using a scanner and translocation is expressed as the amount of isozymes in the particulate fraction over the amount of isozymes in non-treated cells. Changes in translocation of δPKC isozyme were also determined by immunofluoresence study of treated and fixed cells (Gray et al., 1997). Translocation was determined by counting over 100 cells/treatment in a blinded fashion. The results are shown in FIG. 2A-2B, FIGS. 3A-3B and FIGS. 4A-4B.

Sequence	protection from ischemia-induced cell damage ([1]; 10 nM, 100 nM, 500 nM, 1 μM, given 10 minutes prior to 180 minute ischemia)	effect of co-treatment on the ψδRACK-induced increase in cell damage ([1]; 90 minute ischemia, co-treatment with ψδRACK)	translocation of αPKC [2]	PMA-induced δPKC translocation ([3]; 500 nM Antennapedia-conjugated peptide, with PMA, 10-20 minutes, newborn rat cardiac myocytes)	basal partitioning of δPKC in the particulate fraction ([3]; 500 nM δV1-1, no ψδRACK)	cardiac myocyte damage after ischemic insult ([1]; 1 μM ψδRACK, 180 minute ischemia)	effect of co-incubation on the δV1-1 protection from ischemia-induced damage ([1]; co-incubation with δV1-1, 180 minute ischemia, ψδRACK 1 μM)	ψδRACK-induced increase in cell damage ([1]; ischemia shortened to 90 minutes)	δPKC translocation induced by the peptide ([3]; 500 nM Antennapedia-conjugated peptide, cardiac myocytes)	effect on the δV1-1 inhibition of basal δPKC partitioning ([3]; 500 nM ψδRACK together with 500 nM δV1-1)
SFNSYELGSL (also: conjugated to Antennapedia or Tat carrier; listed as Rattus norvegicus) [δV1-1, tested conjugated to Antennapedia or Tat carrier]	concentration-dependent level of protection	reversed	did not inhibit	inhibited	inhibited	–	–	–	–	–
MRAAEDPM (also: conjugated to Antennapedia or Tat carrier; listed as Rattus norvegicus) [ψδRACK, tested conjugated to Antennapedia or Tat carrier]	–	–	without affecting	–	–	slight increase	prevented	became significant	selectively induced	reversed
